T1: human fibrinogen (human, UniProt P02671 20-629; P02675 31-491; P02679 27-437)
T1 construct: The three chains are general knowledge about fibrinogen; also called human Fg
T1 sequence 1: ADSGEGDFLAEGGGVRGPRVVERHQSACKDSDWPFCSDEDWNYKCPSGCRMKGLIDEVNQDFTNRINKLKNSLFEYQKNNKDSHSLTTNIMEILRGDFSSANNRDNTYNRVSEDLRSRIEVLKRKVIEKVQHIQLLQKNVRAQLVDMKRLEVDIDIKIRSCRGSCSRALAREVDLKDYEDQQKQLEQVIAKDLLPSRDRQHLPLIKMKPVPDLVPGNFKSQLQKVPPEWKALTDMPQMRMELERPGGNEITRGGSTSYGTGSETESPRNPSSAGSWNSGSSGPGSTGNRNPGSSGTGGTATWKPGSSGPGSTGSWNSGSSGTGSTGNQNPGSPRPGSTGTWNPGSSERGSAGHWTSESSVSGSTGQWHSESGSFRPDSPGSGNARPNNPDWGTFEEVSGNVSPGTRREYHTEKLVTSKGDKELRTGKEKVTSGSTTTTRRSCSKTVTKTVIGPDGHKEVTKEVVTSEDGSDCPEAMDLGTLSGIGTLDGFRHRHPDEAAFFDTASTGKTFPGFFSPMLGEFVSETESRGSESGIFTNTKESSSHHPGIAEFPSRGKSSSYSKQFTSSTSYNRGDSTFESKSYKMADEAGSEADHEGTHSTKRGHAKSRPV
T1 sequence 2: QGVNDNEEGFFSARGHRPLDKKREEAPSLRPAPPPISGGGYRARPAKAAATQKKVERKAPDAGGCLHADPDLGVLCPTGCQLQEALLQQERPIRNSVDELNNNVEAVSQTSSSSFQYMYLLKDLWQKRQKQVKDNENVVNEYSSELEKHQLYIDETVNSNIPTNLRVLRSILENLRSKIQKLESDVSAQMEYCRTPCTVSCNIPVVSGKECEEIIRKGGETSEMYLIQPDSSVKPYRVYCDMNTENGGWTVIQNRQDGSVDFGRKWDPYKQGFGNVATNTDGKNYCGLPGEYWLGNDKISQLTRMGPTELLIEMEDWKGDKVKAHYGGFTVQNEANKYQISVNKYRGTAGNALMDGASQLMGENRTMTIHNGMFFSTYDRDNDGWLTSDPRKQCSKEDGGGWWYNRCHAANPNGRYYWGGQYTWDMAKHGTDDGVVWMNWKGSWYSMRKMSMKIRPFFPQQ
T1 sequence 3: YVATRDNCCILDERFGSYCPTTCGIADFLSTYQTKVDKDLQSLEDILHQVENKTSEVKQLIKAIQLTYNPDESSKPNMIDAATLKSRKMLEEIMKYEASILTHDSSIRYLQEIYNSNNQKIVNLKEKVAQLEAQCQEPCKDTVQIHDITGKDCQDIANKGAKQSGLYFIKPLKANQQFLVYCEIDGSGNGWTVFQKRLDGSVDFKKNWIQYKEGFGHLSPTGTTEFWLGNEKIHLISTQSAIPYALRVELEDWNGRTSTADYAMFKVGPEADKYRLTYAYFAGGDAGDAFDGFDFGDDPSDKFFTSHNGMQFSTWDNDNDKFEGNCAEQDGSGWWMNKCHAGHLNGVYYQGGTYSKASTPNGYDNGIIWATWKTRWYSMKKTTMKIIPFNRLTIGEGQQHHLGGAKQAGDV

T2: bovine fibrinogen (bovine, UniProt P02672 20-615; P02676 1-468; P12799 25-444)
T2 construct: The three chains are general knowledge about fibrinogen; also called bovine Fg
T2 sequence 1: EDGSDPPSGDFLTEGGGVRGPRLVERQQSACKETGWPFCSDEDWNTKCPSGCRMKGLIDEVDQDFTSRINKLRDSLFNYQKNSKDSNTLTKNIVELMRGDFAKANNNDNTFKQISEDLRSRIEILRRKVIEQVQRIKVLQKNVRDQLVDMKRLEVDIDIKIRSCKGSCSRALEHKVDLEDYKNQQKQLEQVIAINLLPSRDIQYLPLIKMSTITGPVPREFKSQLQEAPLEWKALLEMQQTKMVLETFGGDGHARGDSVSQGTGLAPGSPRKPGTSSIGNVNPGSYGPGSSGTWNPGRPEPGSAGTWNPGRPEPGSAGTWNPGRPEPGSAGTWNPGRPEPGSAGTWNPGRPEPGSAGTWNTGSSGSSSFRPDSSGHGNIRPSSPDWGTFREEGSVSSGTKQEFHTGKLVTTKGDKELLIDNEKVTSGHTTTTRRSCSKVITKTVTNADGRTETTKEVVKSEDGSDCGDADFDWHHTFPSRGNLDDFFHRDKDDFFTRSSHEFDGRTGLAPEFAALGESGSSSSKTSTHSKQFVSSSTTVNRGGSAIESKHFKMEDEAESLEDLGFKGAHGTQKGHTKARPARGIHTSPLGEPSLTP
T2 sequence 2: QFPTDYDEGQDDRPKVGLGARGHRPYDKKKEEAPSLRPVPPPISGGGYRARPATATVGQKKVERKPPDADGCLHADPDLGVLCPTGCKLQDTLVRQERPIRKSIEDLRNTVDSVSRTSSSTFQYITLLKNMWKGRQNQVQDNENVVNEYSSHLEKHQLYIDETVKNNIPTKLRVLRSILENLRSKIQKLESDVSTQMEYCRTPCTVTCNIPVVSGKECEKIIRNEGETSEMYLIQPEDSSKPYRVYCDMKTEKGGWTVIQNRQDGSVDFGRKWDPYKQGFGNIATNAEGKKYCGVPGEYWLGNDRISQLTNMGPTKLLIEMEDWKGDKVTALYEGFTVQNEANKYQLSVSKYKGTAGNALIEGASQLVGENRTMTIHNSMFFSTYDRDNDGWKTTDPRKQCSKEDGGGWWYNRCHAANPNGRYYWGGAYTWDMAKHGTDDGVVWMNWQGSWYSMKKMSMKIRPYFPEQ
T2 sequence 3: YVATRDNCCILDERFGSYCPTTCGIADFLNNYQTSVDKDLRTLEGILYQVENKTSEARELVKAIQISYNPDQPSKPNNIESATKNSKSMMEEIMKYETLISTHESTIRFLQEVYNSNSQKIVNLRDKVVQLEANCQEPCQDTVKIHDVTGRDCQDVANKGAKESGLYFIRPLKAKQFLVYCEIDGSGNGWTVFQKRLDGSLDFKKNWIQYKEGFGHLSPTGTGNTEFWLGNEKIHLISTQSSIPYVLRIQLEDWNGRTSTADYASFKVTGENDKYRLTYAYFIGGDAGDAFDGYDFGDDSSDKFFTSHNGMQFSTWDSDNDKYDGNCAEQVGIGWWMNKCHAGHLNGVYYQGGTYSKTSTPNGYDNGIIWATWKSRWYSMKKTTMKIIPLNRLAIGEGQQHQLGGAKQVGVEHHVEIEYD

T3: recombinant mouse cytokeratin 10 (mouse, UniProt P02535 454-570)
T3 construct: also called CK10; recombinant CK10
T3 sequence: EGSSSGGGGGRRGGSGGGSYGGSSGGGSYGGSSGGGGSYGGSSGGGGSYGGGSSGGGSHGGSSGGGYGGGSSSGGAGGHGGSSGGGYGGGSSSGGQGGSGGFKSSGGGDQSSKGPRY

B1: SpsO of S. pseudintermedius ED99, full-length, expressed on L. lactis MG1363 (pOri23) (other)
chain: SVKEGQQSINSSEKESADPTVVDLISKKETNLDGLDVSREETTKVPINENKRGEEQSISDKAITEKADTPVSNLSSKEVEEQGVSDKAITEKADTPVTNLSSKEAKEQGASDRVITEKADTPVSNLSSKEAKEQGASDRVITEKADTPVSNLSSKEVEEQGVSDKAIEKIADASATDLSSKEEVEQDISTQGKVKSKEAVQVESSQLQNLNSEINAEPNEIKAIDRSSILPLNLNDEENNKKVNKGTRVPEATLRNASNNQLNTRMRSVSLFRVARLTEINRNVNDKVKVSDIDIAIAPPHTNPKTGKEEFWATSSSVLKLKASYELDNSISKGDQFTIQFGQNIRPGGLNLPRPYNFLYDKDKKLVATGRYNKESNTITYTFTDYVDKHQNIKGSFEMNAFSRKENATTDKTAYPMDVTIANQKYSENIIVDYGNKKNAAIISSTEYIDLDGSRKMTTYINQNGSKNSIYRADMQIDLNGYKFDPSKNNFKIYEVENSSDFVDSFSPDVSKLRDVTSQFNIQYTNNNTMAKVDFGTNLWRGKKYIIQQVANIDDSKLVKNASINYTLNKMDFNNKRTVETHNNTYSTVKDKSTALGDVQESQSISESQSVSESESLSESQSISESESLSESQSISESESLSESQSISESESLSESQSISESESLSESQSISESESLSESQSISESESLSESQSISESESLSESQSISESESLSESQSISESESLSESQSISESESLSESQSISESESLSESQSISESESLSESQSISESESLSESQSISESESLSESQSISESESLSESQSISESESLSESQSISESESLSESQSISESESLSESQSISESESLSESQSISESESLSESQSISESESLSESQSISESESLSESQSISESESLSESQSISESESLSESQSISESESLSESQSISESESLSESQSISESESLSESQSISESESLSESQSISESESLSESQSVSESESLSESQSISESESLSESQSISESESLSESQSISESESLSESQSISESESLSESQSISESESLSESQSISESESLSESQSISESESLSESQSISESESLSESQSISESESLSESQSISESESLSESQSISESESLSESQSISESESLSESQSISESESLSESQSISESESLSESQSVSESESLSESQSISESESLSESQSISESESLSESQSISESESLSESQSISESESLSESQSISESESLSESQSISESESLSESQSISESESLSESQSVSESESLSESQSISESESLSESQSISESESLSESQSISESESLSESQSISESESLSESQSISESESLSESQSISESESLSESQSISESESLSESQSISESESLSESQSISESESLSESQSISESESLSESQSISESESLSESQSISESESLSESQSISESESLSESQSISESESLSESQSISESESLSESQSISESESLSESQSISESESLSESQSISESESLSESQSISESESLSESQSISERESLSESQSISESESLSESQSISESESLSESQSISESESLSESQSISESESLSESQSISESESLSESQSISESESLSESQSISESESLSESQSISESESLSESQSISESESLSESQSISESESLSESQSVSESESLSESQSISESESLSESQSISESESLSESQSISESESLSESQSISESESLSESQSISESESLSESQSISESESLSESQSISESESLSESQSISESESLSESQSISESESLSESQSISESESLSESQSISESESKSLPNTGTGEKISNYPGILGGLLSILGISLLKRKDREKKLGQKSNK
notes: also called L. lactis expressing SpsO; putative MSCRAMM SpsO
B2: SpsL of S. pseudintermedius ED99, full-length, expressed on L. lactis MG1363 (pOri23) (other)
chain: NEDVTETTGRNSVTTQASEQHLQVEAVPQEGNNVNVSSVKVPTNTATQAQEDVASVSDVKAHADDALQVQESSHTDGVSSEFKQETAYANPQTAETVKPNSEAVHQSEYEDKQKPVSSSRKEDETMLQQQQVEAKNVVSAEEVSKEENTQVMQSPQDVEQHVGGKDISNEVVVDRSDIKGFNSETTIRPHQGQGGRLNYQLKFPSNVKPGDQFTIKLSDNINTHGVSVERTAPRIMAKNTEGATDVIAEGLVLEDGKTIVYTFKDYVNGKQNLTAELSVSYFVSPEKVLTTGTQTFTTMIGNHSTQSNIDVYYDNSHYVDGRISQVNKKEAKFQQIAYINPNGYLNGRGTIAVNGEVVSGTTKDLMQPTVRVYQYKGQGVPPESITIDPNMWEEISINDTMVRKYDGGYSLNLDTSKNQKYAIYYEGAYDAQADTLLYRTYIQSLNSYYPFSYQKMNGVKFYENSASGSGELKPKPPEQPKPEPEIQADVVDIIEDSHVIDIGWNTAVGEESGANQGPQEEITENHDIEVIEENNLVEMTEDTAVGEESGANQGPQEEITENHDIEVIEENNLVEMTEDTALEEESGANQGPQEEITENHDIEVIEENNLVEMTEDTALEEESGANQGPQEEITENHDIEVIEENNLVEMTEDTAVGEESGANQGPQEEITENHDIEVIEENNLVEMTEDTAVGEESGANQGPQEEITENHDIEVIEENNLVEMTEDTALEEESGANQGPQEEITENHNIEVIEENNLVEMTEDTAVGEESGANPGPQEEVTENQPQQEEIMENQEVEKKGDSNLVESTKTPKAEESVSVQPTLEDKNTKNHVNTVVVNTKVSEVKEKDPHHTKALPDTGTTSRSHSMMIPLLLVAGSVVLLRRKKKHSKVN
notes: also called L. lactis expressing SpsL; putative MSCRAMM SpsL

Assays:
Test in all cases: solid phase adherence assay, L. lactis on coated plates, absorbance 590 nm
human fibrinogen = molecular target: T1, human fibrinogen
bovine fibrinogen = molecular target: T2, bovine fibrinogen
[1] = molecular target: T3, recombinant mouse cytokeratin 10

| Binder | binding result (human fibrinogen) | binding result (bovine fibrinogen) | binding result [1] |
| --- | --- | --- | --- |
| B1 | no binding (tested: 1 µg Fg coated per well) | no binding (tested: 1 µg Fg coated per well) | no binding (tested: 1 µg CK10 coated per well) |
| B2 | no binding (tested: 1 µg Fg coated per well) | no binding (tested: 1 µg Fg coated per well) | no binding (tested: 1 µg CK10 coated per well) |
